Key:
[1] = target: Env of the clade D HIV-1 pseudoviruses of the cross-clade 162-pseudovirus panel (n = 25); assay: cell-based or functional assay
[2] = target: Env of the clade G HIV-1 pseudoviruses of the cross-clade 162-pseudovirus panel (n = 15); assay: cell-based or functional assay
[3] = target: HIV-1 92BR020 envelope glycoprotein (Env) (HIV-1); assay: cell-based or functional assay
[4] = target: HIV-1 Env of isolate 92RW008 (HIV-1); assay: cell-based or functional assay
[5] = target: HIV-1 Env of isolate 92WR009 (HIV-1); assay: cell-based or functional assay
[6] = target: HIV-1 Env of isolate 92WR021 (HIV-1); assay: cell-based or functional assay
[7] = target: HIV-1 Env of isolate 94UG103 (HIV-1); assay: cell-based or functional assay
[8] = target: HIV-1 Env of isolate CMU02 (HIV-1); assay: cell-based or functional assay
[9] = target: HIV-1 Env of isolate MGRM-A-002 (HIV-1); assay: cell-based or functional assay
[10] = target: HIV-1 Env of isolate MGRM-A-007 (HIV-1); assay: cell-based or functional assay
[11] = target: HIV-1 Env of isolate MGRM-A-010 (HIV-1); assay: cell-based or functional assay
[12] = target: HIV-1 Env of isolate MGRM-C-026 (HIV-1); assay: cell-based or functional assay
[13] = target: HIV-1 JR-CSF Env D325A (HIV-1 isolate JR-CSF) (UniProt P20871); assay: cell-based or functional assay
[14] = target: HIV-1 JR-CSF Env H330A (HIV-1 isolate JR-CSF) (UniProt P20871); assay: cell-based or functional assay
[15] = target: HIV-1 JR-CSF Env I307A (HIV-1 JR-CSF) (UniProt P20871); assay: cell-based or functional assay
[16] = target: HIV-1 JR-CSF Env I309A (HIV-1 JR-CSF) (UniProt P20871); assay: cell-based or functional assay
[17] = target: HIV-1 JR-CSF Env I323A (HIV-1 isolate JR-CSF) (UniProt P20871); assay: cell-based or functional assay
[18] = target: HIV-1 JR-CSF Env I326A (HIV-1 isolate JR-CSF) (UniProt P20871); assay: cell-based or functional assay
[19] = target: HIV-1 JR-CSF Env I420A (HIV-1 (isolate JR-CSF)) (UniProt P20871); assay: cell-based or functional assay
[20] = target: HIV-1 JR-CSF Env K343A (HIV-1 isolate JR-CSF) (UniProt P20871); assay: cell-based or functional assay
[21] = target: HIV-1 JR-CSF Env N276A (HIV-1 JR-CSF) (UniProt P20871); assay: cell-based or functional assay
[22] = target: HIV-1 JR-CSF Env N295A (HIV-1 JR-CSF) (UniProt P20871); assay: cell-based or functional assay
[23] = target: HIV-1 JR-CSF Env N386A (HIV-1 isolate JR-CSF) (UniProt P20871); assay: cell-based or functional assay
[24] = target: HIV-1 JR-CSF Env N396A (HIV-1 (isolate JR-CSF)) (UniProt P20871); assay: cell-based or functional assay
[25] = target: HIV-1 JR-CSF Env N411A (HIV-1 (isolate JR-CSF)) (UniProt P20871); assay: cell-based or functional assay
[26] = target: HIV-1 JR-CSF Env P299A (HIV-1 JR-CSF) (UniProt P20871); assay: cell-based or functional assay
[27] = target: HIV-1 JR-CSF Env P313A (HIV-1 JR-CSF) (UniProt P20871); assay: cell-based or functional assay
[28] = target: HIV-1 JR-CSF Env R315A (HIV-1 isolate JR-CSF) (UniProt P20871); assay: cell-based or functional assay
[29] = target: HIV-1 JR-CSF Env R350A (HIV-1 isolate JR-CSF) (UniProt P20871); assay: cell-based or functional assay
[30] = target: HIV-1 JR-CSF Env S199A (HIV-1 JR-CSF) (UniProt P20871); assay: cell-based or functional assay
[31] = target: HIV-1 JR-CSF Env S306A (HIV-1 JR-CSF) (UniProt P20871); assay: cell-based or functional assay
[32] = target: HIV-1 JR-CSF Env S334A (HIV-1 isolate JR-CSF) (UniProt P20871); assay: cell-based or functional assay
[33] = target: HIV-1 JR-CSF Env T202A (HIV-1 JR-CSF) (UniProt P20871); assay: cell-based or functional assay
[34] = target: HIV-1 JR-CSF Env T297A (HIV-1 JR-CSF) (UniProt P20871); assay: cell-based or functional assay
[35] = target: HIV-1 JR-CSF Env T303A (HIV-1 JR-CSF) (UniProt P20871); assay: cell-based or functional assay
[36] = target: HIV-1 JR-CSF Env T320A (HIV-1 isolate JR-CSF) (UniProt P20871); assay: cell-based or functional assay
[37] = target: HIV-1 JR-CSF Env T394A (HIV-1 (isolate JR-CSF)) (UniProt P20871); assay: cell-based or functional assay
[38] = target: HIV-1 JR-CSF Env W395A (HIV-1 (isolate JR-CSF)) (UniProt P20871); assay: cell-based or functional assay
[39] = target: HIV-1 MGRM-C-028 envelope glycoprotein (Env) (HIV-1); assay: cell-based or functional assay
[40] = target: HIV-1 NL43 envelope glycoprotein (Env) (HIV-1); assay: cell-based or functional assay
[41] = target: JR-FL gp120 ΔV1/ΔV2 (HIV-1 (isolate JR-FL)); assay: ELISA on coated gp120; EC50 by nonlinear regression
[42] = target: WT JR-FL gp120 (HIV-1 (isolate JR-FL)); assay: as above

B1: PGT-125 (antibody, V domains shown)
VH: QSQLQESGPRLVEASETLSLTCNVSGESTGACTYFWGWVRQAPGKGLEWIGSLSHCQSFWGSGWTFHNPSLKSRLTISLDTPKNQVFLKLTSLTAADTATYYCARFDGEVLVYNHWPKPAWVDLWGRGIPVTVSS
VL: QSALTQPPSASGSPGQSITISCNGTATNFVSWYQQFPDKAPKLIIFGVDKRPPGVPDRFSGSRSGTTASLTVSRLQTDDEAVYYCGSLVGNWDVIFGGGTTLTVL
For B1, the Median IC50 against viruses neutralized with an IC50 <50 µg/ml [1] was 0.09 µg/mL, the Median IC50 against viruses neutralized with an IC50 <50 µg/ml [2] was 0.02 µg/mL and the IC50 neutralization [3] was 0.0214 µg/mL. It also gave an IC50 (µg/mL), pseudovirus neutralization [4] of 0.004 µg/mL, an IC50 (µg/mL), pseudovirus neutralization [5] of 0.144 µg/mL and an IC50 (µg/mL), pseudovirus neutralization [6] of 0.005 µg/mL. For the same binder, the IC50 (µg/mL), pseudovirus neutralization [7] was 0.008 µg/mL, the IC50 (µg/mL), pseudovirus neutralization [8] was over 50 µg/mL and the IC50 (µg/mL), pseudovirus neutralization [9] was 0.013 µg/mL. The IC50 (µg/mL), pseudovirus neutralization [10] was over 50 µg/mL, the IC50 (µg/mL), pseudovirus neutralization [11] was 0.004 µg/mL and the Polyclonal Transfectant Neutralization Index (well 5123 A6) [12] was 88.3. It also gave a Primary Neutralization Index (B cell culture well 5123 A6) [12] of 512, a Fold IC50 increase relative to wild-type [13] of 0.4 fold and a Fold IC50 increase relative to wild-type [14] of 0.7 fold. For the same binder, the Fold IC50 increase relative to wild-type [15] was 5 fold, the Fold IC50 increase relative to wild-type [16] was 1 fold and the Fold IC50 increase relative to wild-type [17] was 0.9 fold. The Fold IC50 increase relative to wild-type [18] was 0.9 fold, the Fold IC50 increase relative to wild-type [19] was 1.1 fold and the Fold IC50 increase relative to wild-type [20] was 0.7 fold. For the same binder, the Fold IC50 increase relative to wild-type [21] was 0.9 fold, the Fold IC50 increase relative to wild-type [22] was 0.8 fold and the Fold IC50 increase relative to wild-type [23] was 0.8 fold. It also gave a Fold IC50 increase relative to wild-type [24] of 1.6 fold, a Fold IC50 increase relative to wild-type [25] of 0.5 fold and a Fold IC50 increase relative to wild-type [26] of 0.2 fold. For the same binder, the Fold IC50 increase relative to wild-type [27] was 0.3 fold, the Fold IC50 increase relative to wild-type [28] was 0.9 fold and the Fold IC50 increase relative to wild-type [29] was 0.6 fold. The Fold IC50 increase relative to wild-type [30] was 0.7 fold, the Fold IC50 increase relative to wild-type [31] was 1.2 fold and the Fold IC50 increase relative to wild-type [32] was 0.8 fold. The Fold IC50 increase relative to wild-type [33] was 0.8 fold, the Fold IC50 increase relative to wild-type [34] was 0.9 fold and the Fold IC50 increase relative to wild-type [35] was over 250 fold. It also gave a Fold IC50 increase relative to wild-type [36] of 0.8 fold, a Fold IC50 increase relative to wild-type [37] of 0.6 fold and a Fold IC50 increase relative to wild-type [38] of 0.9 fold. It also gave an IC50 neutralization [39] of 5.78 µg/mL, an IC50 neutralization [40] of over 10 µg/mL and an EC50 [41] of 0.6 µg/mL. For the same binder, the EC50 [42] was 0.2 µg/mL.
